# Experimental data published in US20250009852A1, “DEPLETING EGFR AND HER2 OVERCOMES RESISTANCE TO EGFR INHIBITORS IN COLORECTAL CANCER” (Health Research, Inc., priority 2021, published 2025).
# B1: PEPD^G278D: recombinant and enzymatically inactive mutant of human peptidase D (PEPD), with replacement of glycine 278 by aspartic acid (protein)
# chain: AAATGPSFWLGNETLKVPLALFALNRQRLCERLRKNPAVQAGSIVVLQGGEETQRYCTDTGVLFLQESFFHWAFGVTEPGCYGVIDVDTGKSTLFVPRLPASHATWMGKIHSKEHFKEKYAVDDVQYVDEIASVLTSQKPSVLLTLRGVNTDSGSVCREASFDGISKFEVNNTILHPEIVESRVFKTDMELEVLRYTNKISSEAHREVMKAVKVGMKEYGLESLFEHYCYSRGGMRHSSYTCICGSGENSAVLHYGHAGAPNDRTIQNGDMCLFDMDGEYYSVASDITCSFPRNGKFTADQKAVYEAVLLSSRAVMGAMKPGDWWPDIDRLADRIHLEELAHMGILSGSVDAMVQAHLGAVFMPHGLGHFLGIDVHDVGGYPEGVERIDEPGLRSLRTARHLQPGMVLTVEPGIYFIDHLLDEALADPARASFLNREVLQRFRGFGGVRIEEDVVVIDSGIELLTCVPRTVEEIEACMAGCDKAFTPFSGPK
# modifications: left off: small tags and cut ends
# Tests used:
# [1] = Measurement of plasma PEPD^G278D concentration by ELISA; type: in vivo, mouse; conditions: mice bearing SW48 tumors and HCT116 tumors; 24 h after final PEPD^G278D treatment (4 mg/kg ip with EP)
# Procedure: Plasma PEPD^G278D concentration was measured by ELISA as previously reported. Briefly, 96-well ELISA plates were coated with 100 μl/well of a PEPD antibody (mouse monoclonal, against amino acids 101-305, sc-390042) overnight at 4° C. The plates were then washed three times with PBST and incubated with 200 μl/well of a blocking buffer for at least 2 h at RT. The plates were washed again with PBST and incubated with 100 μl/well of a PEPD standard or a sample, which were appropriately diluted, for 2 h at RT. After another round of wash with PBST, each well was incubated with 100 μl of a detection antibody (an anti-PEPD rabbit polyclonal, ab-86507) for 2 h at RT. After another round of wash with PBST, 100 μl of a secondary antibody-HRP conjugate was added to each well, followed by 1 h incubation at RT. The plates were washed again with PBST three times, and each well was then incubated with 100 μl of a HRP substrate solution. After adequate color development, 100 μl of stop solution was added to each well, and absorbance at 450 nm was recorded by a Synergy 2 Multi-Mode Microplate Reader. Purified recombinant PEPD^G278D was used as a standard.
# EGFR and HER2 = assay: Western blotting of tumor homogenates: EGFR and HER2; type: in vivo, mouse; conditions: 24 h after the final dose
# Procedure: To prepare whole cell lysates, cells were washed with PBS twice, mixed with 1× cell lysis buffer from Cell Signaling Technology supplemented with 2 mM PMSF and a protease inhibitor cocktail from Roche Applied Science, placed on ice for 10 min, sonicated at 0-4° C. to enhance cell lysis using a Branson Model 450 sonifier, and finally centrifuged at 13,000 g for 10 min at 4° C., and the supernatant fraction is collected as whole cell lysate. […]
# Protein concentrations in all samples were measured using the BCA Assay Kit. […] Proteins were transferred to polyvinylidene fluoride membrane, probed with specific antibodies, and detected using either Luminata Classico (Millipore) or Luminata Cresendo (Millipore). […] The beads were washed three times with IP buffer, suspended in 2× SDS loading buffer, boiled for 5 min, and analyzed by Western blotting.
# SCID mice (C.B.17 SCID) were bred by the Laboratory Animal Shared Resource at Roswell Park Comprehensive Cancer Center. […] Subcutaneous tumor volume was measured using length ×width^2÷2. Tumor volume was measured three times each week. Orthotopic tumor growth was monitored by bioluminescence weekly. Mice were given D-luciferin (150 mg/kg) by ip and anesthetized with isoflurane, and tumor burden was measured by bioluminescence using the IVIS Spectrum In Vivo Imaging System (PerkinElmer). Drug treatment was started when significant tumor growth was detected. […]
molecule,measurement,setting,value
B1,plasma concentrations of PEPD^G278D,[1],high and similar
same,"effect on EGFR, HER2 and ERK in tumors",EGFR and HER2; HCT116 and HT29 tumors,neither PEPD^G278D nor cetuximab had any effect
same,expression and phosphorylation of EGFR and HER2 in tumors,EGFR and HER2; SW48 tumors,decreased the expression and phosphorylation of both EGFR and HER2
